The text below walks through data of the supplement of paper PMC9170038.

For the data set, the system named is MS2 coat protein. In words: apparent KD of MS2 coat protein; higher = weaker reporter binding. The conditions noted are these: Eterna round: R107. The essentials: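 Titrations with SNAP-549-labelled MS2 coat protein ran in twofold steps from 0.7 or 1.5 nM to 3 µM, each step taking 0.8–1.5 h at the start and 10–20 min toward the end. The targets were designed RNA switches transcribed on-chip from Illumina sequencing clusters, held in 100 mM Tris-HCl pH 7.5, 80 mM KCl, 4 mM MgCl2, without or with constant ligand. Apparent KD was taken per design as the median of normalised cluster binding-curve fits.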

Where [1] appears, read: input ligand: theophylline 20 uM.
The mark [2] stands for this setting: input ligand: tryptophan 2.4 mM.
Setting [3] is: input ligand: theophylline 2 mM.

For “GCCCUUGGCAGCGAUACCAGCCAAAAUUAAAAUAAACCUCUACAUGAGGAUCACCCAUGUGGCCCUUGGCAGCGAUACCAGCAAA [#ReversedDoubbleAptamer 1]”, the “apparent KD of MS2 coat protein” value reads like this: (input ligand: arginine 13.2 mM) 33.7 nM; under setting [1], 49.7 nM; under setting [2], 43.5 nM.
“GCCGGGCCUUCGGCCGCCACUGAGAGAGUCGUGUGAACAUGAGGAUCACCCAUGUAAUAUAUAUACAGGACCGGGAGGGCCCGGC [4.V]”: the “apparent KD of MS2 coat protein” value (input ligand: arginine 13.2 mM) turned out to be 12.6 nM; the “apparent KD of MS2 coat protein” value (input ligand: none) was determined as 16.3 nM; the “apparent KD of MS2 coat protein” value under setting [1] came out at 17.8 nM; the “apparent KD of MS2 coat protein” value under setting [3] stood at 14.9 nM; the “apparent KD of MS2 coat protein” value under setting [2] was 10.4 nM.
“GCCUCAUGUAGAAGGAGCGUCAGAAGCUACAGACAUGAGGAUCACCCAUGUUAGUUGAUCUGACAGGUAGGUCGCUACAGCAGGA [Arg B SS t7]”: the “apparent KD of MS2 coat protein” value was 26.7 nM (input ligand: arginine 13.2 mM); 37 nM (input ligand: none); 44.9 nM under setting [1]; 41.1 nM under setting [3]; 34.9 nM under setting [2].
“GCGAUACAUGAGGAUCACCCAUGUGCAGAUACCAGAGGUGCAUGCCUCCCUUGGCAGCUGCGACGCUCUGGCAUCUUGUGGGAUG [Same State Theophylline A GF20]”: the “apparent KD of MS2 coat protein” value was 37.6 nM (input ligand: arginine 13.2 mM), 86.4 nM under setting [1] and 56.9 nM under setting [2].
With “GCGAUGGAGCGAAGGAGCGGCUAAAUGUAACACAUGAGGAUCACCCAUGUUCCAAGAUGUGGCCAGGUAGGUCGCGCUCCAUCGC [SSAB NP+V+V2 #15]”, the “apparent KD of MS2 coat protein” value by setting is: (input ligand: arginine 13.2 mM) 61.8 nM; (input ligand: none) 175 nM; under setting [1], 229 nM; under setting [3], 185 nM; under setting [2], 144 nM.
On to “GCGAUGGAGCGAAGGAGCGGCUGUGACUACAUGAGGAUCACCCAUGUACGAUCGUAAGGUAGCCAGGUAGGUCGCGCUCCAUCGC [SSAB NP+V+V2 #17]”, for which the “apparent KD of MS2 coat protein” value runs as follows: (input ligand: arginine 13.2 mM) 18.7 nM; (input ligand: none) 29.3 nM; under setting [1], 41.8 nM; under setting [3], 41.8 nM; under setting [2], 26.2 nM.
Turning to “GCGGACAUGAGGAUCACCCAUGUAAAUCCUCGAGGACCGGUACGGCCGCCACUCGAACGAGUGGCACGCGAGUGCGCACUCGCGU [aDa]”, the “apparent KD of MS2 coat protein” value reads like this: (input ligand: arginine 13.2 mM) 21.8 nM; under setting [1], 38.4 nM; under setting [3], 29.7 nM.
As to “GCGGUGGUCGGAAGGAGCGACAUGAGGAUCACCCAUGUCUCCCGUUAUGGGAGUUCCUUAGGUCAGGUAGGUCGCCGACUGCCGC [#1 Exclusion - Arginine B Attempt #21 (Inspired by Omei)]”, the “apparent KD of MS2 coat protein” value (input ligand: arginine 13.2 mM) was determined as 105 nM; the “apparent KD of MS2 coat protein” value (input ligand: none) is 195 nM; the “apparent KD of MS2 coat protein” value under setting [1] worked out at 234 nM; the “apparent KD of MS2 coat protein” value under setting [3] turned out to be 260 nM; the “apparent KD of MS2 coat protein” value under setting [2] worked out at 227 nM.
On to “GCGUCGGUCGGAAGGAGCGACAUGAGGAUCACCCAUGUCUCCCGUUAUGGGAGUUCCUUAGGUCAGGUAGGUCGCCGACGGACGC [#1 Exclusion - Arginine B Attempt #19 (Inspired by Omei)]”, for which the “apparent KD of MS2 coat protein” value (input ligand: arginine 13.2 mM) turned out to be 63.8 nM; the “apparent KD of MS2 coat protein” value (input ligand: none) was determined as 170 nM; the “apparent KD of MS2 coat protein” value under setting [1] turned out to be 190 nM; the “apparent KD of MS2 coat protein” value under setting [3] is 216 nM; the “apparent KD of MS2 coat protein” value under setting [2] was 196 nM.
For the sequence “GCUACACAGGACCGUACUAAGGAUUCGCCUCGAGGACCGGUACGGCCGCCACUCGUUGCGCGACAUGAGGAUCACCCAUGUGUUC [theeternabot_exclusion_MS2_Trp_A_33]”, the “apparent KD of MS2 coat protein” value is 31.1 nM (input ligand: arginine 13.2 mM), 48.3 nM under setting [1] and 50.7 nM under setting [3].
Regarding “GCUACAUGAGGAUCACCCAUGUAUGCGAGCCGAGGACCGGUACGGCCGCCACUCGCUUAACAUGAGGAUCACCCAUGUUUCUCGG [SSTA DOUBLE!!! :-D #16]”, the “apparent KD of MS2 coat protein” value turned out to be 69.9 nM (input ligand: arginine 13.2 mM), 193 nM under setting [1] and 254 nM under setting [3].
On to “GCUACAUGAGGAUCACCCAUGUAUGCGAGUCGAGGACCGGUACGGCCGCCACUCGCUUAACAUGAGGAUCACCCAUGUUACUCGC [SSTA DOUBLE!!! :-D #19]”, for which the “apparent KD of MS2 coat protein” value runs as follows: (input ligand: arginine 13.2 mM) 56 nM; under setting [1], 106 nM; under setting [3], 88.7 nM.
For “GCUAGGUCUACGGCCGCCACUAGACGUGGGUAAGACAUGAGGAUCACCCAUGUACUACAGGCGGAUAGGACCGGGUAGACCUAGC [SSTB NP+V+V2 #13 +-Same Structure]” the same measures were 69.3 nM, 159 nM and 101 nM.
On to “GCUGCUUUGGGAAGGAGCGCUGCGUUAUCAUGUUGGACAUGAGGAUCACCCAUGUAAAUGUAGCAGGUAGGUCGCUUAGGGCAGC [EAP NP+V+V2 #15]”, for which the “apparent KD of MS2 coat protein” value runs as follows: (input ligand: arginine 13.2 mM) 40.8 nM; (input ligand: none) 31.8 nM; under setting [1], 46 nM; under setting [3], 29.7 nM; under setting [2], 37.1 nM.
Turning to “GCUGGGUGCGCAAGGACCUGGCGUUGCGAUACCAGCACGGUAACGUGCCCUUGGCAGCGCACAUGAGGAUCACCCAUGUGGUGCG [#1 Exclusion - Theophylline A Attempt #21 (HarryS)]”, the “apparent KD of MS2 coat protein” value by setting is: (input ligand: arginine 13.2 mM) 18.7 nM; under setting [1], 45.8 nM; under setting [2], 22.5 nM.
In the case of “GCUGUAAGUGCAGAUACCAGCGUGUUAUAUUUCUAAUGACAUGAGGAUCACCCAUGUAAAUGCCCUUGGCAGCUGCACUUACAGC [SSTHB #7]”, the “apparent KD of MS2 coat protein” value came to 13.2 nM (input ligand: arginine 13.2 mM), 16.7 nM under setting [1] and 16.2 nM under setting [2].
Turning to “GCUUGGGUCGCACGGCCCUGGCGGUGCGAUACCAGCACGGUAACGUGCCCUUGGCAGCGCACAUGAGGAUCACCCAUGUGGUGCG [#1 Exclusion - Theophylline A Attempt #23 (HarryS)]”, the “apparent KD of MS2 coat protein” value amounted to 9.42 nM (input ligand: arginine 13.2 mM); 12.6 nM (input ligand: none); 25.6 nM under setting [1]; 264 nM under setting [3]; 12.4 nM under setting [2].
As to “GGAACGAUCACUUCUUUAUCUAAGGCGGAUACCAGUCCUCGGUUUGACCCUUGGCAGCCGACAACAUGAGGAUCACCCAUGUUCU [theeternabot_exclusion_MS2_Theo_A_25]”, the “apparent KD of MS2 coat protein” value by setting is: (input ligand: arginine 13.2 mM) 12.5 nM; under setting [1], 18.9 nM; under setting [2], 15.6 nM.
“GGAAUUAAGACUGAUACCAGUCAAGAUAAUCAUAAGAAUAAACAUGAGGAUCACCCAUGUGACCCUUGGCAGCAGACUAAUACCG [Same State Theophylline B GF 26]”: the “apparent KD of MS2 coat protein” value was determined as 38.5 nM (input ligand: arginine 13.2 mM), 51.1 nM under setting [1] and 39.2 nM under setting [2].
